Data set [1] has as its target T1, PPR2.0 t1 (synthetic).
T1 chain: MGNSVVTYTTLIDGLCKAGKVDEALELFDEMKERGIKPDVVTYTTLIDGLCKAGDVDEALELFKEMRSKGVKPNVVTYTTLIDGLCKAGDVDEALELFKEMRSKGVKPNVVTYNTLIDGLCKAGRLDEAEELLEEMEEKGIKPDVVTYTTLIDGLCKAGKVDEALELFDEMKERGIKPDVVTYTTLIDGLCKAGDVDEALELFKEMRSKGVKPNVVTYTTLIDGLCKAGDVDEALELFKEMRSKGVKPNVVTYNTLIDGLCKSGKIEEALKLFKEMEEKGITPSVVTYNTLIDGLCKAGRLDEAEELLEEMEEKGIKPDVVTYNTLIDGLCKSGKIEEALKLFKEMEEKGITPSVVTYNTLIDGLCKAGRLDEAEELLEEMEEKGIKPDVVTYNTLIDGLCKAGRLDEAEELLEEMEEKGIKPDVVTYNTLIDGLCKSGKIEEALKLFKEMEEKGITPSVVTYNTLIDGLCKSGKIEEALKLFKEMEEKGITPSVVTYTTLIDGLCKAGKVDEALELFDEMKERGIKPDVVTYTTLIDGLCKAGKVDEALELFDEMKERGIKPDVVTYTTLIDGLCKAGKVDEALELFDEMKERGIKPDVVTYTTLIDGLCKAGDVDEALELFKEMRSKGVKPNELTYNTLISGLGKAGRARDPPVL
Nature of the data set: 20 mM Tris-HCl pH 8.0, 150 mM NaCl, 0.5% NP-40, 1 mM DTT. Particulars: tags: N-terminal NanoLuc, C-terminal His6, kept; label: biotin.

Data set [2] has as its target T1, PPR2.0 t1. The data set is described as follows: EMSA; 20 mM Tris-HCl pH 8.0, 150 mM NaCl, 0.5% NP-40, 1 mM DTT, 1 mM EDTA; 20 nM RNA. Particulars: tags: N-terminal SBP, C-terminal His6, kept; label: biotin. (In EMSA bound probe runs differently from free probe, usually more slowly.)
The target of data set [3] is T2, PPR2.0 t19 (synthetic).
T2 chain: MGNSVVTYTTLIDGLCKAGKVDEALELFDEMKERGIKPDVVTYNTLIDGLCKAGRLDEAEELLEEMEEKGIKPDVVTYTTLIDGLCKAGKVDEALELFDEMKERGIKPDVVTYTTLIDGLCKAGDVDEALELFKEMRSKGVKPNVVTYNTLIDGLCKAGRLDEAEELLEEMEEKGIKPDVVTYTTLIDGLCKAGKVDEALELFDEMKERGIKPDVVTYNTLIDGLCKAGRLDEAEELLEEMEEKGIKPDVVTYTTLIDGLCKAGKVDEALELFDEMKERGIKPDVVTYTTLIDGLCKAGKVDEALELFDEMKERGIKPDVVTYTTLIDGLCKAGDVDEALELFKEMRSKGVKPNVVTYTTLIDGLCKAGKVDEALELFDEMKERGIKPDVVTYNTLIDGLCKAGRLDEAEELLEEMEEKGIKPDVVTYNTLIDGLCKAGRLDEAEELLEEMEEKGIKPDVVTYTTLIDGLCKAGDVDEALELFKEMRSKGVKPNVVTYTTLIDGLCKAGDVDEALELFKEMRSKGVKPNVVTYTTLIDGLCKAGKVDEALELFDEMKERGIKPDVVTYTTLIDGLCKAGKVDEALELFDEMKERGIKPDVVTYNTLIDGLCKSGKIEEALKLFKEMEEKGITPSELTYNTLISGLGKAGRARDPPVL
Nature of the data set: 20 mM Tris-HCl pH 8.0, 150 mM NaCl, 0.5% NP-40, 1 mM DTT. The conditions noted are these: tags: N-terminal NanoLuc, C-terminal His6, kept; label: biotin.

Data set [4] deals with T2, PPR2.0 t19. Nature of the data set: EMSA; 20 mM Tris-HCl pH 8.0, 150 mM NaCl, 0.5% NP-40, 1 mM DTT, 1 mM EDTA; 20 nM RNA. Particulars: tags: N-terminal SBP, C-terminal His6, kept; label: biotin.
Data set [5] deals with T3, PPR2.0 t23 (synthetic).
T3 chain: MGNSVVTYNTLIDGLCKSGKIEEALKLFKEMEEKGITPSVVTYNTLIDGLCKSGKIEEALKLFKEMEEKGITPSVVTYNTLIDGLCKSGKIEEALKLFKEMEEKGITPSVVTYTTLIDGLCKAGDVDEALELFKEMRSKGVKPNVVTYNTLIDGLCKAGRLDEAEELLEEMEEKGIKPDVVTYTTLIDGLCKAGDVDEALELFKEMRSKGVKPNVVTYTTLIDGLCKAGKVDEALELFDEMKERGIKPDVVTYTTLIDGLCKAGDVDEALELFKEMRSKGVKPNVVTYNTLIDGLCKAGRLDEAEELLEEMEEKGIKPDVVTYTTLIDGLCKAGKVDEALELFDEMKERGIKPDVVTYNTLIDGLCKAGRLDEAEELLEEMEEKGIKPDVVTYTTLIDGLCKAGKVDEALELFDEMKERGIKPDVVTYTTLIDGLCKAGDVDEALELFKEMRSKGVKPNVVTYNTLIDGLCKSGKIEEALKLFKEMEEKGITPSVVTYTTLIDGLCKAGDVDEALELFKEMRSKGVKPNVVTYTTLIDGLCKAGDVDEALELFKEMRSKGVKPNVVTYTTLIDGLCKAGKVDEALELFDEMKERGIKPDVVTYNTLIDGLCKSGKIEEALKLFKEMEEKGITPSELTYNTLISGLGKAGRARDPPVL
The data set is described as follows: 20 mM Tris-HCl pH 8.0, 150 mM NaCl, 0.5% NP-40, 1 mM DTT. The conditions noted are these: tags: N-terminal NanoLuc, C-terminal His6, kept; label: biotin.

Data set [6] deals with T3, PPR2.0 t23. The data set is described as follows: EMSA; 20 mM Tris-HCl pH 8.0, 150 mM NaCl, 0.5% NP-40, 1 mM DTT, 1 mM EDTA; 20 nM RNA. Particulars: tags: N-terminal SBP, C-terminal His6, kept; label: biotin.
For data set [7], the target named is T4, PPR2.0 t2 (synthetic).
T4 chain: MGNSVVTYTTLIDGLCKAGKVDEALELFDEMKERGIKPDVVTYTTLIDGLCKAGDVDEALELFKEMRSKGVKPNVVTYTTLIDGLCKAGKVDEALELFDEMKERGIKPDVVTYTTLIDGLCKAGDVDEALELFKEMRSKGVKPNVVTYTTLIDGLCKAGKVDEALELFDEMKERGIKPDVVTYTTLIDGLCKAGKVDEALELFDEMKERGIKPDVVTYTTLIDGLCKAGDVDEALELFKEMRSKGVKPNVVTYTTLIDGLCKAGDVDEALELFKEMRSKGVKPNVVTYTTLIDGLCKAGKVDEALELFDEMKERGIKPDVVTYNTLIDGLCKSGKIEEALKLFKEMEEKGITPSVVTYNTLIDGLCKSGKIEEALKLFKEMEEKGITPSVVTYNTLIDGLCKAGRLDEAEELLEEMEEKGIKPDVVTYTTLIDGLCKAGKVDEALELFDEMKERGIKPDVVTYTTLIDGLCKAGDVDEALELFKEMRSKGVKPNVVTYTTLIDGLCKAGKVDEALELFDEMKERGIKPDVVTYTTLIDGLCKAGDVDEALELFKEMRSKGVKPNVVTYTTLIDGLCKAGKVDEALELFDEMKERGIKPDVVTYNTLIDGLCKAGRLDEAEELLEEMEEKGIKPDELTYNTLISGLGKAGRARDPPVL
Nature of the data set: 20 mM Tris-HCl pH 8.0, 150 mM NaCl, 0.5% NP-40, 1 mM DTT. The conditions noted are these: tags: N-terminal NanoLuc, C-terminal His6, kept; label: biotin.

Data set [8] has as its target T4, PPR2.0 t2. Nature of the data set: EMSA; 20 mM Tris-HCl pH 8.0, 150 mM NaCl, 0.5% NP-40, 1 mM DTT, 1 mM EDTA; 20 nM RNA. Particulars: tags: N-terminal SBP, C-terminal His6, kept; label: biotin.
The target of another data set is MS2 protein (UniProt P03612 2-130). Nature of the data set: RBP-ELISA; purified and lysate, dose-dependent; EMSA: 20 mM Tris-HCl pH 8.0, 150 mM NaCl, 0.5% NP-40, 1 mM DTT, 1 mM EDTA, 0.2 pmol biotin-RNA in 10 uL, 6% PAGE in 0.5x TBE; temperature not stated; RBP-ELISA. Particulars: protein: recombinant; tags: 6xHis; Nano-luc; chain copies: 2; label: 5'-biotin; hairpin.
Sequence of MS2 protein (P03612 2-130): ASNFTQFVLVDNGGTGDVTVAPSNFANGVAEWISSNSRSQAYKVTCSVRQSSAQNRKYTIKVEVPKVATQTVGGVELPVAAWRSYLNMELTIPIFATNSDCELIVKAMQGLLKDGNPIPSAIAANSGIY

In the next data set the target is T5, PPR2.0 t24 (synthetic).
T5 chain: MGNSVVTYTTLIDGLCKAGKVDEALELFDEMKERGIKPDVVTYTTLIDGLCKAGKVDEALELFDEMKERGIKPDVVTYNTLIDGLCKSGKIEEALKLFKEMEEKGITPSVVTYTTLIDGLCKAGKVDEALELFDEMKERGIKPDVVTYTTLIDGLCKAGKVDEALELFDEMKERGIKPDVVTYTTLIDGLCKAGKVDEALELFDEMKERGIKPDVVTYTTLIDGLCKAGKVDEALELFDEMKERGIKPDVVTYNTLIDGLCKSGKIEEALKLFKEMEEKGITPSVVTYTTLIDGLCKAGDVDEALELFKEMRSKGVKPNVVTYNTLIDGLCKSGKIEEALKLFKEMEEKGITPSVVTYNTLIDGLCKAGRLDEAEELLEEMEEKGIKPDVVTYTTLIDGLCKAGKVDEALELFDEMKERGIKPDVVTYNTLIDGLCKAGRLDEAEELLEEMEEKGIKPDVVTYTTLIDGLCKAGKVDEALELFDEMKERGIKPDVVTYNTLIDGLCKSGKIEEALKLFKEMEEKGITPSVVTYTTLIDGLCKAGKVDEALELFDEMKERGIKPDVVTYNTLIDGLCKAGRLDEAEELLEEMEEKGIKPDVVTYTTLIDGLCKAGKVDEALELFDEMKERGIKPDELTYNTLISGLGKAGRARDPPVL
The data set is described as follows: EMSA; 20 mM Tris-HCl pH 8.0, 150 mM NaCl, 0.5% NP-40, 1 mM DTT, 1 mM EDTA; 20 nM RNA. Particulars: tags: N-terminal SBP, C-terminal His6, kept; label: biotin.

The target of data set [9] is T6, PPR2.0 t3 (synthetic).
T6 chain: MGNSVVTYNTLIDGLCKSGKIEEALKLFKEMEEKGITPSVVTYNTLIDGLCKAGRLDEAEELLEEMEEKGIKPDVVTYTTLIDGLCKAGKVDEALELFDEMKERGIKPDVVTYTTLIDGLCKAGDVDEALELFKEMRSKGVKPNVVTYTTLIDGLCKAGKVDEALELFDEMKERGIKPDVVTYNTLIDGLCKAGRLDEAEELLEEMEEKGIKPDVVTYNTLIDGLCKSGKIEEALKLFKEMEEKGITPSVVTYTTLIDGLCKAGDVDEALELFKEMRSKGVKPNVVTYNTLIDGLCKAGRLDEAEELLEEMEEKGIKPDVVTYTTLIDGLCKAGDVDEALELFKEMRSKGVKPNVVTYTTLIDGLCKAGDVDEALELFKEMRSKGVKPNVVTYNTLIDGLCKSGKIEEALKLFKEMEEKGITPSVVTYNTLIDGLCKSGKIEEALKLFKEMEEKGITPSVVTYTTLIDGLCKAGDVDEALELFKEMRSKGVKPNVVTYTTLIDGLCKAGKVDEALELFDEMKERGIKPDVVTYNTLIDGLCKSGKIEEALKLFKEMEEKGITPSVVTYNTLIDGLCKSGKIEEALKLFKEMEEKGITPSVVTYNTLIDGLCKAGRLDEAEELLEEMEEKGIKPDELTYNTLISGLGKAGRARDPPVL
Nature of the data set: 20 mM Tris-HCl pH 8.0, 150 mM NaCl, 0.5% NP-40, 1 mM DTT. Particulars: tags: N-terminal NanoLuc, C-terminal His6, kept; label: biotin.

For data set [10], the target named is T6, PPR2.0 t3. Nature of the data set: EMSA; 20 mM Tris-HCl pH 8.0, 150 mM NaCl, 0.5% NP-40, 1 mM DTT, 1 mM EDTA; 20 nM RNA. Particulars: tags: N-terminal SBP, C-terminal His6, kept; label: biotin.

B1: Probe_t1 (ssRNA)
RNA: GACAUGCGAAUGAACUCUUCCGGGAGACUG
As usually defined, the Kd is the free concentration of one partner at which half of the binding sites on the other are occupied at equilibrium, for simple one-to-one binding. A higher Kd goes with a looser complex. On to B1, for which the binding signal with PPR2.0 t1 [1] is 6.64e+07 RBP-ELISA luminescence, CPS. The same molecule gave a Kd in the data set with PPR2.0 t1 [2] of 3.45 nM.

B2: Probe_t19 (ssRNA)
RNA: GACAUGCGUGAUGUGGAGUUAAGGCGACUG
B2: the binding signal with PPR2.0 t19 [3] is 1.19e+07 RBP-ELISA luminescence, CPS. Moreover, binding with PPR2.0 t19 [4] was characterised by a dissociation constant (Kd) of 173 nM.

B3: Probe_t23 (ssRNA)
RNA: GACAUGCCCCAUAGAUGUGACAAGCGACUG
Regarding B3, the binding signal in the data set with PPR2.0 t23 [5] is 3.27e+07 RBP-ELISA luminescence, CPS. In addition, in the data set with PPR2.0 t23 [6], the Kd turned out to be 10.4 nM.

B4: Probe_t2 (ssRNA)
RNA: GACAUGCGAGAGGAAGCCUGAGAGUGACUG
Take B4: the binding signal with PPR2.0 t2 [7] is 5.68e+07 RBP-ELISA luminescence, CPS. Moreover, the Kd in the data set with PPR2.0 t2 [8] was found to be 4 nM.

B5: Probe_MS2 (structured_RNA)
RNA: AGAAAACAUGAGGAUCACCCAUGUCUGCAG
In the case of B5, the binding result in the data set with MS2 protein was “binds”.

B6: Probe_t24 (ssRNA)
RNA: GACAUGCGGCGGGGCACUGUGCGUGGACUG
In turn, B6 displayed a Kd in the data set with PPR2.0 t24 of 11 nM.

B7: Probe_t3 (ssRNA)
RNA: GACAUGCCUGAGUCAUAACCAGCCUGACUG
As to B7, the binding signal with PPR2.0 t3 [9] was 3.35e+07 RBP-ELISA luminescence, CPS. The molecule further had a Kd in the data set with PPR2.0 t3 [10] of 59.2 nM.

Source of the values: article PMC9688318, “Construction of a Versatile, Programmable RNA-Binding Protein Using Designer PPR Proteins and Its Application for Splicing Control in Mammalian Cells”.
